Data: patent US20160324962A1 (AstraZeneca / MedImmune, published 2016)

Columns and labels:
[1] = biological target: T1, human insulin-like growth factor 2 (IGF-2) (human, UniProt P01344 25-91); assay: method not stated; affinity quoted in Example 3
T1 construct: also called hIGF-2

[2] = biological target: T2, human insulin-like growth factor 1 (IGF-1) (human, UniProt P05019 49-118); assay: method not stated; affinity quoted in Example 3
T2 construct: also called hIGF-1

[3] = biological target: T1, human insulin-like growth factor 2 …; assay: cell-based or functional assay
[4] = biological target: T2, human insulin-like growth factor 1 …; assay: cell-based or functional assay

T1 sequence (P01344 25-91 limits assumed): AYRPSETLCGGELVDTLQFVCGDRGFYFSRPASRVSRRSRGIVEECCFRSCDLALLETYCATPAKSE
T2 sequence (P05019 49-118 limits assumed): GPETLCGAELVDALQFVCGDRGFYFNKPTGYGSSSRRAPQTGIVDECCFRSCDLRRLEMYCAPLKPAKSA

B1: MEDI-573 (antibody, human IgG2, lambda, V domains shown)
VH: QVQLVQSGAEVKKPGASVKVSCKASGYTFTSYDINWVRQATGQGLEWMGWMNPNSGNTGYAQKFQGRVTMTRNTSISTAYMELSSLRSEDTAVYYCARDPYYYYYGMDVWGQGTTVTVSS
VL: QSVLTQPPSVSAAPGQKVTISCSGSSSNIENNHVSWYQQLPGTAPKLLIYDNNKRPSGIPDRFSGSKSGTSATLGITGLQTGDEADYYCETWDTSLSAGRVFGGGTKLTVLG
notes: also called mAb 7.159.2; anti-IGF antibody
[1]
  Kd: 2 pM
[2]
  Kd: 0.000294 µM
[3]
  IC50 (µM), inhibition of IGF-2-stimulated proliferation of MG-63 cells (CellTiter-Glo): 5.8 µM
  IC50 (µM), inhibition of IGF-2-stimulated proliferation of RD-ES cells (CellTiter-Glo): 2 µM
  IC50 (µM), inhibition of IGF-2-stimulated proliferation of SAOS2 cells (CellTiter-Glo): 5.3 µM
  IC50 (µM), inhibition of IGF-2-stimulated proliferation of SK-ES-1 cells (CellTiter-Glo): 20 µM
[4]
  IC50 (µM), inhibition of IGF-1-stimulated proliferation of MG-63 cells (CellTiter-Glo): 223 µM
  IC50 (µM), inhibition of IGF-1-stimulated proliferation of RD-ES cells (CellTiter-Glo): 40 µM
  IC50 (µM), inhibition of IGF-1-stimulated proliferation of SAOS2 cells (CellTiter-Glo): 177 µM
  IC50 (µM), inhibition of IGF-1-stimulated proliferation of SK-ES-1 cells (CellTiter-Glo): 20 µM
